{"source": "the RNAGym collection of RNA variant scans (doi:10.1073/pnas.2313332121)", "parents": {"B1": {"name": "TPR 5TU (parent)", "chain": "GGAUCUUCUCGAUCUAACAAAAAAGACAAAUCUGCCACAAAGCUUGAGAGCAUCUUCGGAUGCAGAGGCGGCAGCCUUCGGUGGCGCGAUAGCGCCAACGUUCUCAACUAUGACACGCAAAACGCGUGCUCCGUUGAAUGGAGUUUAUCAUG"}}, "note": "Variants at the floor of the assay were thinned out.", "data": [{"variants_of": "B1", "assay": "polymerase ribozyme fitness, log enrichment relative to wild type (log ratio); higher = more active; in vitro selection for triplet polymerase activity", "summary_of_the_method": "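A heterodimeric triplet polymerase ribozyme had each of its subunits mutagenized by PCR into a library, which was transcribed. One round of in vitro selection, done in triplicate, annealed each library with a biotinylated primer, its partner subunit and triplets, then incubated it frozen at −7 °C before gel excision of extended constructs, streptavidin-bead capture and RT-PCR. Fitness is the logarithm of genotype enrichment relative to wild-type enrichment, based on Illumina sequencing of inputs and outputs and inverse-variance-weighted replicate averages. A base-2 logarithm is used, and genotypes were kept only with ≥10 input reads and ≥1 read per output.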", "values": [{"variant": "GGAUCUUCUCGAUCUAACAAAAAAGACAAAUCUGCCACAAAGCUUGAGAGCAUCUUCGGAUGCAGAGGCGGCAGCCUUCGGUGUCGCGAUAGCGCCAACGGUCUCAACUAUGACACGCAAAACGCGUGCUCCGUUGAAUGGAUUUUAUCAUG", "note": "[G84U U101G G143U]", "polymerase ribozyme fitness (log ratio)": "≤ -4.2"}, {"variant": "GGAUCUUCUCGAUCUAACAAAAAAGACAAAUCUGCCACAAAGCUUGAGAGCAUCUUCGGAUGCAGAGGCGGCAGCCUUCGGUGUCGCGAUAGCGCCAACGUUCUCAACUAUGACACGCAAAACGCGUGCUCCGUAGAAUGGAGUUUAUCAUG", "note": "[G84U U135A]", "polymerase ribozyme fitness (log ratio)": -2.85}, {"variant": "GGAUCUUCUCGAUCUAACAAAAAAGACAAAUCUGCCACAAAGCUUGAGAGCAUCUUCGGAUGCAGAGGCGGCAGCCUUCGGUGGAGCGAUAGCGCCAACGUUCUCAACUAUGACACGCAAAACGCGUGCUCCGUUGAAUGGUGUUUAUCAUG", "note": "[C85A A142U]", "polymerase ribozyme fitness (log ratio)": -1.59}, {"variant": "GGAUCUUCUCGAUCUAACAAAAAAGACAAAUCUGCCACAAAGCUUGAGAGCAUCUUCGGAUGCAGAGGCGGCAGCCUUCGGUGGAGCGAUAGCGCCAACGUUCUCAACUAUGACACGCUAAACGCGUGCUCCGUUGAAUGGAGUUUAUCAUG", "note": "[C85A A119U]", "polymerase ribozyme fitness (log ratio)": -2.98}, {"variant": "GGAUCUUCUCGAUCUAACAAAAAAGACAAAUCUGCCACAAAGCUUGAGAGCAUCUUCGGAUGCAGAGGCGGCAGCCUUCGGUGUCGCGAUAGCGCCAACGUUCUCAACUAUGACACGCAAAACGCGUGCUCCAUUGAAUGGAGUUUAUCAUG", "note": "[G84U G133A]", "polymerase ribozyme fitness (log ratio)": "≤ -4.2"}, {"variant": "GGAUCUUCUCGAUCUAACAAAAAAGACAAAUCUGCCACAAAGCUUGAGAGCAUCUUCGGAUGCAGAGGCGGCAGCCUUCGGUGGAGCGAUAGCGCCAACGUUCUCAACUAUGACACGCUAAUCGCGUGCUCCGUUGAAUGAAGUUUAUCAUG", "note": "[C85A A119U A122U G141A]", "polymerase ribozyme fitness (log ratio)": 0.358}, {"variant": "GGAUCUUCUCGAUCUAACAAAAAAGACAAAUCUGCCACAAAGCUUGAGAGCAUCUUCGGAUGCAGAGGCGGCAGCCUUCGGUGGAGCGAUAGCGCUAACGUUCUCAACUAUGACACGCCAAACGCGUGCUCCGUUGAAUGGAGUUUAUCAUG", "note": "[C85A C96U A119C]", "polymerase ribozyme fitness (log ratio)": -0.783}, {"variant": "GGAUCUUCUCGAUCUAACAAAAAAGACAAAUCUGCCACAAAGCUUGAGAGCAUCUUCGGAUGCAGAGGCGGCAGCCUUCGGUGGAGUGAUAGCGCCACCGUUCUCAACUAUGACACGCAAAACGCGUGCUCCGUUGAAUGGAGUUUAUCAUG", "note": "[C85A C87U A98C]", "polymerase ribozyme fitness (log ratio)": -3.62}, {"variant": "GGAUCUUCUCGAUCUAACAAAAAAGACAAAUCUGCCACAAAGCUUGAGAGCAUCUUCGGAUGCAGAGGCGGCAGCCUUCGGUGGAGUGAUAGCGCCAACGGUCUCAACUAUGACACGCAAAACGCGUGCUCCGUUUAAUGGAGUUUAUCAUG", "note": "[C85A C87U U101G G136U]", "polymerase ribozyme fitness (log ratio)": "≤ -4.2"}, {"variant": "GGAUCUUCUCGAUCUAACAAAAAAGACAAAUCUGCCACAAAGCUUGAGAGCAUCUUCGGAUGCAGAGGCGGCAGCCUUCGGUGUCGCGAUAGCGCCAAUGUUCUCAACUAUGACACGCAAAACGCGUGCUCCGUUGAAUGCAGUUUAUCAUG", "note": "[G84U C99U G141C]", "polymerase ribozyme fitness (log ratio)": -2.46}, {"variant": "GGAUCUUCUCGAUCUAACAAAAAAGACAAAUCUGCCACAAAGCUUGAGAGCAUCUUCGGAUGCAGAGGCGGCAGCCUUCGGUGUCGCGAUAGCGCCAACGUUCUCAACUAUGACACUCAAAACGCGUGCUCCGUUGAAUGGAGUUUAUCAUG", "note": "[G84U G117U]", "polymerase ribozyme fitness (log ratio)": -1.61}, {"variant": "GGAUCUUCUCGAUCUAACAAAAAAGACAAAUCUGCCACAAAGCUUGAGAGCAUCUUCGGAUGCAGAGGCGGCAGCCUUCGGUGGAGAGAUAGCGCCAACGUUCUCAAUUAUGACACGCAAUACGCGUGCUCCGUCGAAUGAAGUAUAUCAUG", "note": "[C85A C87A C108U A121U U135C G141A U145A]", "polymerase ribozyme fitness (log ratio)": "≤ -4.2"}, {"variant": "GGAUCUUCUCGAUCUAACAAAAAAGACAAAUCUGCCACAAAGCUUGAGAGCAUCUUCGGAUGCAGAGGCGGCAGCCUUCGGUGUCGCGAUAGCGCCAACGUUCUCAACUAUGACAAGCAAAACGCGUGCUCCGUUGAAUGGAGUUUAUCAUG", "note": "[G84U C116A]", "polymerase ribozyme fitness (log ratio)": -0.432}, {"variant": "GGAUCUUCUCGAUCUAACAAAAAAGACAAAUCUGCCACAAAGCUUGAGAGCAUCUUCGGAUGCAGAGGCGGCAGCCUUCGGUGGAGCGAUAGCGCCAACGUUCUCAACUAUGACACGCAAAACGCGUGCUCCGUUGCAUGGAGUUUAUCAUG", "note": "[C85A A137C]", "polymerase ribozyme fitness (log ratio)": -4.13}, {"variant": "GGAUCUUCUCGAUCUAACAAAAAAGACAAAUCUGCCACAAAGCUUGAGAGCAUCUUCGGAUGCAGAGGCGGCAGCCUUCGGUGGAGCGAUAGCGACAACGUUCUCAACUAUGACACGCAAAACGCGUGCUCCGUUGAAUGGAGUUUAUCAUG", "note": "[C85A C95A]", "polymerase ribozyme fitness (log ratio)": -0.893}, {"variant": "GGAUCUUCUCGAUCUAACAAAAAAGACAAAUCUGCCACAAAGCUUGAGAGCAUCUUCGGAUGCAGAGGCGGCAGCCUUCGGUGUCGCGAUAGCGCCAACGUUCUCAACUAUGACACGCAAAACGCGUGCUCCGUUGAAUGGAGUAUAUCAUG", "note": "[G84U U145A]", "polymerase ribozyme fitness (log ratio)": -1.53}, {"variant": "GGAUCUUCUCGAUCUAACAAAAAAGACAAAUCUGCCACAAAGCUUGAGAGCAUCUUCGGAUGCAGAGGCGGCAGCCUUCGGUGGAGCGAUAGCGCCAACGUUCUCAACUAUGACACGCAAAACGGGUGCUCCGUUGAAUGGAGUUUAUCAUG", "note": "[C85A C125G]", "polymerase ribozyme fitness (log ratio)": -1.13}, {"variant": "GGAUCUUCUCGAUCUAACAAAAAAGACAAAUCUGCCACAAAGCUUGAGAGCAUCUUCGGAUGCAGAGGCGGCAGCCUUCGGUGUCGCGAUAGCGCCAACGUUCUCAACUAUGACACUCAAGACGCGUGCUCCGUUGAAUGGAGUUUAUCAUG", "note": "[G84U G117U A121G]", "polymerase ribozyme fitness (log ratio)": -1.75}, {"variant": "GGAUCUUCUCGAUCUAACAAAAAAGACAAAUCUGCCACAAAGCUUGAGAGCAUCUUCGGAUGCAGAGGCGGCAGCCUUCGGUGUCGCGAUAGCGCCAACGUUCUCAACUAUGACACGCAAAACGCGUGCUCCGUUGAAUGGAGUUUAACAUG", "note": "[G84U U148A]", "polymerase ribozyme fitness (log ratio)": "≤ -4.2"}]}]}
